Binding result and EC50 data for four molecules are collected here from patent publication US20200010567A1 (NEURIMMUNE, published 2020).

In general, EC50 refers to the concentration giving half of the maximal effect.

One assay has as its target T1, GA5: H-(GA)5HHHHHH-NH2.
T1 peptide: H-GAGAGAGAGAHHHHHH-NH2
The experiment in a line: indirect ELISA, His-tagged peptide coated at 50 ug/ml, antibody titrated [also D00025 FIG. 7I]. On the procedure: (§1) 96-well microplates (Corning Incorporated, Corning, USA) were coated with dipeptide repeat protein peptides at a concentration of 50 μg/ml in coating buffer (15 mM Na₂CO₃, 35 mM NaHCO₃, pH 9.42). Non-specific binding sites were blocked for 1 h at room temperature with PBS/0.1% Tween®-20 containing 2% BSA (Sigma-Aldrich, Buchs, Switzerland). Primary antibodies were diluted to the indicated concentrations and incubated 1 h at room temperature, followed by incubation with a donkey anti-human IgG Fcγ-specific antibody conjugated with HRP (Jackson ImmunoResearch Laboratories, Inc., West Grove, USA). Binding was determined by measurement of HRP activity in a standard colorimetric assay. EC₅₀ values were estimated by non-linear regression using GraphPad Prism software (San Diego, USA).
(§2) High affinity binding was detected for poly-GA DPRs harboring 10 or 20 (GA)-repeats, reflected in an EC₅₀ in the subnanomolar or low nanomolar range (FIGS. 7A, 7C-7I).
On the technique in general: In an ELISA, binding on a coated surface is turned into a signal by an enzyme label.

For assay [1], the target named is T2, GA4: H-(GA)4HHHHHH-NH2.
T2 peptide: H-GAGAGAGAHHHHHH-NH2
Described as above. On the procedure: as §1, §2

In assay [2] the target is T3, GA3: H-(GA)3HHHHHH-NH2.
T3 peptide: H-GAGAGAHHHHHH-NH2
Described as above. On the procedure:
as §1, §2

Assay [3] deals with T4, GA2: H-(GA)2HHHHHH-NH2.
T4 peptide: H-GAGAHHHHHH-NH2
Described as above. Here is the method:
as §1, §2

For assay [4], the target named is T2, GA4: H-(GA)4HHHHHH-NH2. The experiment in a line: indirect ELISA, His-tagged peptide coated at 50 ug/ml, antibody titrated [also D00025 FIG. 7H]. On the procedure: as §1, §2
In assay [5] the target is T3, GA3: H-(GA)3HHHHHH-NH2. Described as above. On the procedure:
as §1, §2

Assay [6] has as its target T4, GA2: H-(GA)2HHHHHH-NH2. The description is as above. Here is the method: as §1, §2
For the next assay, the target named is T5, GP20: H-(GP)20HHHHHH-NH2 (C-terminal amide).
T5 peptide: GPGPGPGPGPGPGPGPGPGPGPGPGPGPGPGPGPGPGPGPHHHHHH
The experiment in a line: sandwich ELISA, peptide captured by anti-His antibody. The text has this:
In brief, His-tagged dipeptide repeat protein peptides were synthesized and purified by Schafer-N(Copenhagen, Denmark): GA₂₀: H-(GA)₂₀HHHHHH-NH₂; GA₁₀: H-(GA)₁₀HHHHHH-NH₂; GA₆: H-(GA)₆HHHHHH-NH₂; GA₅: H-(GA)₅HHHHHH-NH₂; GA₄: H-(GA)₄HHHHHH-NH₂; GA₃: H-(GA)₃HHHHHH-NH₂; GA₂: H-(GA)₂HHHHHH-NH₂; GP₂₀: H-(GP)₂₀HHHHHH-NH₂; GP₁₀: H-(GP)₁₀HHHHHH-NH₂; GP₆: H-(GP)₆HHHHHH-NH₂; GP₅: H-(GP)₅HHHHHH-NH₂; GP₄: H-(GP)₄HHHHHH-NH₂; GP₃: H-(GP)₃HHHHHH-NH₂; GP₂: H-(GP)₂HHHHHH-NH₂. 96-well microplates (Corning Incorporated, Corning, USA) were coated with monoclonal mouse anti-His tag antibody (Takara Bio Europe/Clontech, Saint-Germain-en-Laye, France) at a concentration of 10 μg/ml in coating buffer (15 mM Na₂CO₃, 35 mM NaHCO₃, pH 9.42) overnight at 4° C. Non-specific binding sites were blocked for 1 h at room temperature with PBS/0.1% Tween®-20 containing 2% BSA (Sigma-Aldrich, Buchs, Switzerland). After a washing step, His-tagged C9orf72 DPR protein peptides at equal concentration of either 1 μM or 5 μM in PBS (pH 7.4) were added for target-trapping by the anti-His tag antibody for 1 h at room temperature. […] Antibody binding to DPR protein peptides was detected by a donkey anti-human IgG Fcγ-specific antibody conjugated with HRP at 1:5000 dilution (Jackson ImmunoResearch Laboratories, Inc., West Grove, USA) for 1 h at RT. Binding was determined by measurement of HRP activity in a standard colorimetric assay. EC₅₀ values were estimated by non-linear regression using GraphPad Prism software (San Diego, USA).

The target in assay [7] is T6, BSA-coupled (GP)15 DPR protein peptide (bovine, conjugated via a bifunctional linker (SMCC) to bovine serum albumin).
T6 construct: also called BSA-(GP)15
T6 sequence (peptide, as listed by the source limits assumed, chain 1 of 2): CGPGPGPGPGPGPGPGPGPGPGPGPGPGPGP
T6 sequence (P02769 25-607 limits assumed, chain 2 of 2): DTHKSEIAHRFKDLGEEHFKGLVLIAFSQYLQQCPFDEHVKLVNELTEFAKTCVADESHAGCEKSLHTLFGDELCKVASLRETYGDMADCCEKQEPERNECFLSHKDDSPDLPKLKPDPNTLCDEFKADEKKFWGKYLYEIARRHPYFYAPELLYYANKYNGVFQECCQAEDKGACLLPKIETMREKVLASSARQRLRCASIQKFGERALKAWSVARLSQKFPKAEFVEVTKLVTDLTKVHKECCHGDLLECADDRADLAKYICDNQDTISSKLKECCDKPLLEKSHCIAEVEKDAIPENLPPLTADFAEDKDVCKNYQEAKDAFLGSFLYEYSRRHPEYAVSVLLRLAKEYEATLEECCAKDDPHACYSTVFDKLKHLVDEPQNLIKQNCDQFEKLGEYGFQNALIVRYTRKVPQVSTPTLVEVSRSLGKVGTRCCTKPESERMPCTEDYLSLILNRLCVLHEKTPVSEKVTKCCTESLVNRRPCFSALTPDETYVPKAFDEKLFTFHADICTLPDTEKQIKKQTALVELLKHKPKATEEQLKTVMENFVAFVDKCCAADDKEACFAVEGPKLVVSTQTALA
The experiment in a line: indirect ELISA, BSA-coupled peptide coated, antibody titrated [also D00014 FIG. 3G]. On the procedure: as §1, with “In brief, dipeptide repeat proteins were synthesized and purified by Schafer-N(Copenhagen, Denmark): (GA)₁₅: H-CHHHHHH(GA)₁₅-OH; (GP)₁₅: H-C(GP)₁₅-OH; (GR)₁₅: H-C(GR)₁₅-OH; (PA)₁₅: H-C(PA)₁₅-OH; (PR)₁₅: H—C(PR)₁₅-OH. DPR protein peptides were then conjugated via a bifunctional linker (SMCC) to bovine serum albumin (BSA). 96-well microplates” for “96-well microplates”, “coated with BSA-coupled or -uncoupled dipeptide repeat” for “coated with dipeptide repeat”, “concentration of either 5 μg/ml or 20 μg/ml in” for “concentration of 50 μg/ml in”

Another assay concerns the target T7, (PA)15: H-C(PA)15-OH.
T7 construct: synthetic, not coupled to BSA; also called poly-PA DPR protein peptide
T7 peptide: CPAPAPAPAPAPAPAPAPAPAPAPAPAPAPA
As to the kind of experiment: indirect ELISA, uncoupled peptide coated, antibody titrated [also D00015 FIG. 3K]. Here is the method: as §1, with “In brief, dipeptide repeat proteins were synthesized and purified by Schafer-N(Copenhagen, Denmark): (GA)₁₅: H-CHHHHHH(GA)₁₅-OH; (GP)₁₅: H-C(GP)₁₅-OH; (GR)₁₅: H-C(GR)₁₅-OH; (PA)₁₅: H-C(PA)₁₅-OH; (PR)₁₅: H—C(PR)₁₅-OH. DPR protein peptides were then conjugated via a bifunctional linker (SMCC) to bovine serum albumin (BSA). 96-well microplates” for “96-well microplates”, “coated with BSA-coupled or -uncoupled dipeptide repeat” for “coated with dipeptide repeat”, “concentration of either 5 μg/ml or 20 μg/ml in” for “concentration of 50 μg/ml in”

B1: NI-308.45C2 (antibody, V domains shown)
VH: QLQLQESGPGLVKPSQILSLTCAISGDSVFSNSAAWNWIRQSPSRGLEWLGRTYYRSKWDNDYAPSVKSRISINPDTSKNQFSLQLNSVTPEDTAVYYCAREVAYCGGDCYSVSFDYWGQGTLVTVSS
VL: not shown
notes: Recombinant complete human IgG1, kappa
As for B1, the binding result with GA5: H-(GA)5HHHHHH-NH2, in the assay with GA4: H-(GA)4HHHHHH-NH2 [1], in the assay with GA3: H-(GA)3HHHHHH-NH2 [2] and with GA2: H-(GA)2HHHHHH-NH2 [3] was “no binding (tested: about 4x10^5 pM (last point))” throughout.

B2: NI-308.28G1 (antibody, V domains shown)
VH: QVQLQESGPRLVKPSETLSLTCTVAGGSVNSYYWTWIQQSPGKGLEWLGRIYIAGRTNYNPSLTSRIALSVDTSRNQLSLKLTSVTAADTAIYYCARWGAESGDYYYGVDVWGPGTLVTVSS
VL: EIVMTQSPLSLPVTPGEPASISCKSSEGLLHSNGYTYLDWYLQKPGQAPQLLIFLASNRAAGVPDRFSGSGSGTDFTLKISRVEAEDVGVYYCMQAIQSPWTFGPGTKVEIK
notes: as for B1
B2: the binding result in the assay with GA4: H-(GA)4HHHHHH-NH2 [4], with GA3: H-(GA)3HHHHHH-NH2 [5] and in the assay with GA2: H-(GA)2HHHHHH-NH2 [6] was “no binding (tested: about 4x10^5 pM (last point))” throughout.

B3: NI-308.5G2 (antibody, V domains shown)
VH: EVQLVQSGADLRNPGASVTVSCTASGYHFADNAINWLRQAPGQRLEWMGWINIYSGNTKYSQNFQGRVTFTRNTSASTAFMHLRSLRSEDTAVYFCARDPDSSGYYLPYFDYWGQGTLVTVSS
VL: DIQLTQSPDSLTLSLGERATINCKSSQSVFYNSNNKNYLAWYQQKPGQPPKLLMYWASTRESGVTDRFSGSGSGTDFTLTITNLQAEDVAVYYCQQFYSSPLTFGGGTKVEIK
notes: as for B1
With B3, the EC50 is 38200 pM with GP20: H-(GP)20HHHHHH-NH2 and 210 pM in assay [7].

B4: NI-308.4M1 (antibody, V domains shown)
VH: EVQLVETGGGVVQPGGSLRLSCEASGFTIGTYAMHWVRQFPGKGLDWVAVISFDGTTEYYTDAVKGRFTISRDNAKNTLYLQMNYLRGDDTAIYFCARDFTSSGETGSWTQVPDLWGQGTLVTVSS
VL: CEIVMTQSPATLSLSPGERATLSCRASQSVTKYLAWYQQKPGQAPRLLIYDVSYRAAGTPARFSGSGSGTDFTLTISSLEPEDFAVYYCHQRSSWPPVTFGGGTKVEIK
notes: as for B1
As for B4, the response with (PA)15: H-C(PA)15-OH was half-maximal at 100 pM (EC50).
